# Publication PMC7000413, “CDX-301: a novel medical countermeasure for hematopoietic acute radiation syndrome in mice” (Scientific Reports, 2020)
# Biological target: the molecule itself
# Experiment: SEC; size exclusion chromatography of purified CDX-301; apparent molecular weight approximately 44,000 Daltons; conditions not given
protein,measurement,value
"CDX-301, soluble recombinant human Fms-related tyrosine kinase 3 ligand (Flt3L) (ligand, glycoprotein with 2 potential N-linked (N100, N123) and 5 potential O-linked (S136, S137, T138, S144, T151) glycosylation sites; 3 intramolecular disulfide bonds, human Flt3 ligand, the 153 N-terminal amino acids of the extracellular domain; 3 C-terminal residues of the extracellular domain, the transmembrane domain and the cytoplasmic domain eliminated; mature, secreted protein of 153 amino acids. numbers count on: the mature protein; Non-covalent homodimer; also called rhuFlt3L; Flt3 Ligand; source: manufactured under cGMPs by Celldex Therapeutics) TQDCSFQHSPISSDFAVKIRELSDYLLQDYPVTVASNLQDEELCGGLWRLVLAQRWMERLKTVAGSKMQGLLERVNTEIHFVTKCAFQPPPSCLRFVQTNISRLLQETSEQLVALKPWITRQNFSRCLELQCQPDSSTLPPPWSPRPLEATAP",stoichiometry N,2
